Assay results taken from patent publication US20120164659A1 (NEXIGEN, published 2012).

Assays:
[1] = target: T1, Sos-2xSpc-Vif fusion protein (negative control target protein, expressed from pADH-Sos-2xSpc-vif); assay: Sos recruitment system in cdc25-2 yeast, growth at 37 C on galactose (FIG. 2 row D: MARCH7+SOS-Vif)
T1 construct: Heterologous control bait in cdc25-2 yeast; also called Sos-Vif; SOS-Vif

[2] = target: T1, Sos-2xSpc-Vif fusion protein (negative …); assay: Sos recruitment system in cdc25-2 yeast, growth at 37 C on galactose (FIG. 2 row B: GBP2+Sos-Vif)

| Binder | binding result [1] | binding result [2] |
| --- | --- | --- |
| membrane-associated Ring-finger 7 (MARCH7), prey fusion with myristoylation signal from the human hepatocyte cDNA library (other, myristoylation signal at the N-terminus (membrane localisation), also called axotrophin; membrane-associated RING-CH protein VII; not shown: myristoylation signal of the pmyr library vector) MESKPSRIPRRISVQPSSSLSARMMSGSRGSSLNDTYHSRDSSFRLDSEYQSTSASASASPFQSAWYSESEITQGARSRSQNQQRDHDSKRPKLSCTNCTTSAGRNVGNGLNTLSDSSWRHSQVPRSSSMVLGSFGTDLMRERRDLERRTDSSISNLMDYSHRSGDFTTSSYVQDRVPSYSQGARPKENSMSTLQLNTSSTNHQLPSEHQTILSSRDSRNSLRSNFSSRESESSRSNTQPGFSYSSSRDEAPIISNSERVVSSQRPFQESSDNEGRRTTRRLLSRIASSMSSTFFSRRSSQDSLNTRSLNSENSYVSPRILTASQSRSNVPSASEVPDNRASEASQGFRFLRRRWGLSSLSHNHSSESDSENFNQESEGRNTGPWLSSSLRNRCTPLFSRRRREGRDESSRIPTSDTSSRSHIFRRESNEVVHLEAQNDPLGAAANRPQASAASSSATTGGSTSDSAQGGRNTGISGILPGSLFRFAVPPALGSNLTDNVMITVDIIPSGWNSADGKSDKTKSAPSRDPERLQKIKESLLLEDSEEEEGDLCRICQMAAASSSNLLIEPCKCTGSLQYVHQDCMKKWLQAKINSGSSLEAVTTCELCKEKLELNLEDFDIHELHRAHANEQAEYEFISSGLYLVVLLHLCEQSFSDMMGNTNEPSTRVRFINLARTLQAHMEDLETSEDDSEEDGDHNRTFDIA | no binding | – |
| Interferone-induced guanylate binding protein-2 (GBP2), prey fusion with myristoylation signal from the human hepatocyte cDNA library (other, myristoylation signal at the N-terminus (membrane localisation), also called NM-004120; not shown: myristoylation signal of the pmyr library vector) MAPEINLPGPMSLIDNTKGQLVVNPEALKILSAITQPVVVVAIVGLYRTGKSYLMNKLAGKKNGFSLGSTVKSHTKGIWMWCVPHPKKPEHTLVLLDTEGLGDIEKGDNENDSWIFALAILLSSTFVYNSMGTINQQAMDQLHYVTELTDRIKANSSPGNNSVDDSADFVSFFPAFVWTLRDFTLELEVDGEPITADDYLELSLKLRKGTDKKSKSFNDPRLCIRKFFPKRKCFVFDWPAPKKYLAHLEQLKEEELNPDFIEQVAEFCSYILSHSNVKTLSGGIPVNGPRLESLVLTYVNAISSGDLPCMENAVLALAQIENSAAVEKAIAHYEQQMGQKVQLPTETLQELLDLHRDSEREAIEVFMKNSFKDVDQMFQRKLGAQLEARRDDFCKQNSKASSDCCMALLQDIFGPLEEDVKQGTFSKPGGYRLFTQKLQELKNKYYQVPRKGIQAKEVLKKYLESKEDVADALLQTDQSLSEKEKAIEVERIKAESAEAAKKMLEEIQKKNEEMMEQKEKSYQEHVKQLTEKMERDRAQLMAEQEKTLALKLQEQERLLKEGFENESKRLQKDIWDIQMRSKSLEPICNIL | – | no binding |
